Columns and labels:
RlmCD Q283A = RlmCD Q283A (Streptococcus pneumoniae, UniProt Q97R12 1-543, Q283A); assay: EMSA; 5 uM SAH; not severely affected vs WT; EMSA: 20 mM Tris-HCl pH 8.0, 250 mM NaCl, 1 mM MgCl2, 0.5 uM FAM-RNA, 5 uM SAH, 0-5 uM protein, 37 C 30 min; 10% native PAGE on ice; conditions: protein: recombinant, tags: 8xHis-SUMO removed by ULP1, label: 5'-FAM
RlmCD D381A = RlmCD D381A (Streptococcus pneumoniae, UniProt Q97R12 1-543, D381A); assay: as above; conditions: protein: recombinant, tags: 8xHis-SUMO removed by ULP1, label: 5'-FAM
RlmCD F145A = RlmCD F145A (Streptococcus pneumoniae, UniProt Q97R12 1-543, F145A); assay: EMSA; 5 uM SAH; almost no effect vs WT; EMSA: 20 mM Tris-HCl pH 8.0, 250 mM NaCl, 1 mM MgCl2, 0.5 uM FAM-RNA, 5 uM SAH, 0-5 uM protein, 37 C 30 min; 10% native PAGE on ice; conditions: protein: recombinant; tags: 8xHis-SUMO removed by ULP1; label: 5'-FAM; 5' single strand with 3' hairpin
RlmCD WT = RlmCD WT (Streptococcus pneumoniae, UniProt Q97R12 1-543); assay: EMSA; 5 uM SAH; two shifted bands; EMSA: 20 mM Tris-HCl pH 8.0, 250 mM NaCl, 1 mM MgCl2, 0.5 uM FAM-RNA, 5 uM SAH, 0-5 uM protein, 37 C 30 min; 10% native PAGE on ice; conditions: protein: recombinant; tags: 8xHis-SUMO removed by ULP1; label: 5'-FAM; 5' single strand with 3' hairpin
RlmCD 1-454 E443Q [1] = biological target: T1, RlmCD 1-454 E443Q (Streptococcus pneumoniae, UniProt Q97R12 1-454, E443Q); assay: X-ray crystallography; SAH (SAM added); covalent C408-U747; EMSA: 20 mM Tris-HCl pH 8.0, 250 mM NaCl, 1 mM MgCl2, 0.5 uM FAM-RNA, 5 uM SAH, 0-5 uM protein, 37 C 30 min; 10% native PAGE on ice; conditions: protein: recombinant; tags: 8xHis-SUMO removed by ULP1; single strand
RlmCD 1-454 E443Q [2] = biological target: T1, RlmCD 1-454 E443Q; assay: X-ray crystallography; SAH (SAM added); covalent C408-U747; space group P1, two complexes per asymmetric unit; EMSA: 20 mM Tris-HCl pH 8.0, 250 mM NaCl, 1 mM MgCl2, 0.5 uM FAM-RNA, 5 uM SAH, 0-5 uM protein, 37 C 30 min; 10% native PAGE on ice; conditions: protein: recombinant; tags: 8xHis-SUMO removed by ULP1; hairpin, 2 bp stem (743-754, 744-753)
RlmCD 1-454 E443Q [3] = biological target: T1, RlmCD 1-454 E443Q; assay: X-ray crystallography; SAH (SAM added); covalent C408-U1939; 3.10 A; EMSA: 20 mM Tris-HCl pH 8.0, 250 mM NaCl, 1 mM MgCl2, 0.5 uM FAM-RNA, 5 uM SAH, 0-5 uM protein, 37 C 30 min; 10% native PAGE on ice; conditions: protein: recombinant; tags: 8xHis-SUMO removed by ULP1; single strand
[4] = 5' single strand with 3' hairpin
[5] = hairpin, 2 bp stem (743-754, 744-753)

GCGAAAUUCCUUGUCGGGUAAGUUCCGACC (structured_RNA) [FAM-U1939 30-nt]
binding result (RlmCD Q283A; [4]): binds
binding result (RlmCD D381A; [4]): binds
binding result (RlmCD F145A): binds
binding result (RlmCD WT): binds

GUUGAAAA (ssRNA, m5 at U747 formed in crystal, covalent to C408) [U747L]
binding result (RlmCD 1-454 E443Q [1]): binds

CCGUUGAAAAGG (structured_RNA, m5 at U747 formed in crystal, covalent to C408) [U747SL]
binding result (RlmCD 1-454 E443Q [2]): binds

AAAUUCCU (ssRNA, m5 at U1939 formed in crystal, covalent to C408) [U1939L]
binding result (RlmCD 1-454 E443Q [3]): binds

CCGUUGAAAAGG (structured_RNA) [FAM-U747SL]
binding result (RlmCD Q283A; [5]): binds
binding result (RlmCD D381A; [5]): binds
